From the supplement of paper PMC9170038

These sequences were tested on MS2 coat protein (assay: apparent KD of MS2 coat protein; higher = weaker reporter binding). Settings: Eterna round: R107; input ligand: theophylline 20 uM.
Procedure, shortened: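 Designed RNA switches, transcribed on-chip from Illumina sequencing clusters, were titrated with SNAP-549-labelled MS2 coat protein from 0.7 or 1.5 nM to 3 µM in twofold steps. The solution was 100 mM Tris-HCl pH 7.5, 80 mM KCl, 4 mM MgCl2, with constant ligand or without it. Apparent KD is the median over each design's normalised cluster binding-curve fits.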

In order of falling “apparent KD of MS2 coat protein” value:
1. AGUACUCGAACGGAUACCAGCCGGACAUGAGGAUCACCCAUGUCCUACCAUUGUUCGGUUGGCCCUUGGCAGCCGUUCGUGUACA [Omei Theo B SS A v4]  366 nM
2. AGCCACUCGAGUGAUCCUCACGAGUGGCUACGAGGACCGGUACGGCCGCCACUCGAAUUAACAUGAGGAUCACCCAUGUAAUCUC [Brourdmod06]  238 nM
3. GGAUAGGACACGGCCGCCACUAGCUAGGAUACUAGCAACAUUUCCUCACAUGAGGAUCACCCAUGUAGGACCGGGUGUCCUAUCG  145 nM
4. GGUGACUGCAUGUGGAAUUAAGGUAGGGAAGGAGCGCGGUAAGACGCAGGUAGGUCGCCCUACAUGAGGAUCACCCAUGUGGUGU [Beenmaer]  135 nM
5. AAAACACAUGAGGAUCACCCAUGUCGUGAUACCAGUCAACAUGAGGACCCUUGGCAGCAUAAAAUGGGUAACAUGAGGAUAACCC [AstrosEXyTheA#3]  105 nM
6. GAGUAGAGGACGGCCGCCACUGAACAUGAGGAUCACCCAUGUCGUGAUCCGUUACCUAGGGUAGAUAGGACCGGGUCAUGUACUC [Exclusion Tryptophan B GF 18]  68.8 nM
7. UUAUAUAUACAUGAGGAUCACCCAUGUGAUACCAGCCUGGAAACAGGCCCUUGGCAGCACAAAUACUCCAGAAAAUAUAAUAAAU [MAT - Exclusion Theophlline A - Mod of Eli - D4]  56.8 nM
8. CGCAACCAACAUGAGGAUCACCCAUGUGAAGGAGCGCCGAAUAAGGCAGGUAGGUCGCACAUGAAUAAAUCAUGAAGGAAGCGAA [XArg-A 12 NuPack]  43.8 nM
9. UCGCUCUGGGUGGGAUCCGGAGAUGUGGAAGGAGCGCUGGAAACAGCAGGUAGGUCGCCAACGGACAUGAGGAUCACCCAUGUAC [Same State - Arginine A (Freestyle 18)]  37.4 nM
10. UUAAUCAUAUUAGAAAACUAAUAUGCAGAAGGAGCGUGAUAAAACACAGGUAGGUCGCUGAAGGGAACAUGAGGAUCACCCAUGU [AstrosSSArgA#8]  32.7 nM
11. UUCUUUAAGUCGGCCGCCACUGAAACAUGAGGAUCACCCAUGUAAAUUUGGGAGUAGGUAUAUUACAGGACCGGGACUAUAGUAA [JR_ExcTryptoB_Sub021]  31.2 nM
12. GAGUUGUGCUCAGGCCCGACUCGCUGAGAAGGAGCGCACUAAGGUGCAGGUAGGUCGCUCAGGAAUACAUGAGGAUCACCCAUGU [Erlaatti]  29.9 nM
13. CACAUGAGGAUCACCCAUGUCUGAACUGAAGGAGCGCUAAACAAGGCAGGUAGGUCGCGGAAUCCUGUGUGCAUAUGCACACGGG [9.W]  27 nM
14. CGGUCGGUCGGCCGGUGAUUAUGGGAUGAAGGAGCGUGGGAAGCUACAGGUAGGUCGCAUCCGAACCAUGAGGAUCACCCAUGGU [SSArg A #23Alt-Ms2 Mod]  26.8 nM
15. CAUACUUUAGUAUGACGUGUGGGCAGUGAUACCAGAUACGAAAGUAUCCCUUGGCAGCACAACAUGAGGAUCACCCAUGUAAUUA [Theophylline A 1]  26.6 nM
16. GUAUGGAAACAUACUAGGGUAUCAUGAGAUACCAGUACAGAAAUGUACCCUUGGCAGCUCAAGCAUACAUGAGGAUCACCCAUGU [Ex Theophylline A 7]  22.7 nM
17. GCAUCCUAGUCGGCCGCCACUGCGAAUAGGUCCUGAGUGAUCUAACAUGAGGAUCACCCAUGUAGCAGGACCGGGACUAGGAUGC [(Trp1)-(TM)''-(TM)'-(Ms2)-(Trp2)_Design5]  22.3 nM
18. ACCAACCACACCCUUCACUGUUUUCGCCGCCGAGGACCGGUACGGCCGCCACUCGUACAAAGACAUGAGGAUCACCCAUGUGCCU [theeternabot_exclusion_MS2_Trp_A_7]  20.3 nM
19. GGCCUAGCGAGCGCUCGCUAGGCCGCGGAUACCAGCGAGGUCCAUCGCCCUUGGCAGCCGAACAUGAGGAUCACCCAUGUCGGUA [#1 Same State - Theophylline A Attempt #15 (HarryS)]  13.4 nM

Same assay, conditions: Eterna round: R107; input ligand: theophylline 2 mM

In order of falling “apparent KD of MS2 coat protein” value:
1. AAUCAUGGAAACAUGACAUGAGGGUUGCUCCGAGGACCGGUACGGCCGCCACUCGCGAGGAGGCGGACAUGAGGAUCACCCAUGU [#05 Tryptophan A Same State]  328 nM
2. AAUGGUGGAACGAAGUACAGGAGUACAAAUCGAGGACCGGUACGGCCGCCACUCGCGAAAGAACAUGAGGAUCACCCAUGUAAAA [theeternabot_exclusion_MS2_Trp_A_34]  177 nM
3. GACAGAAACUGAAGGAGCGAGGUAAAACGGGAUGAGCAAACAUGAGGAUCACCCAUGUGGCCUCAGGUAGGUCGCAGAAAGAAAC [Exclusion Arginine B GF24]  123 nM
4. UUUUUUUUGGGAAGGAGCGGGAACAUGUGGAUCUCCCAUGUACAUGAGGAUCACCCAUGUACCCAGGUAGGUCGCCCAUUUUUUU [Exclusion - Arginine B]  112 nM
5. GGAUAGGACACGGCCGCCACUAGCUAGGAUACUAGCAACAUUUCCUCACAUGAGGAUCACCCAUGUAGGACCGGGUGUCCUAUCG  112 nM
6. GGAGUCGUCACGGCCGCCACUGCGGUGGUGUGACAUGAGGAUCACCCAUGUUGUCAUGCGGCCCUUAGGACCGGGUGUCGGUUCC [#1 Exclusion - Tryptophan B Attempt #23 (HarryS)]  78.3 nM
7. GCCGGUACGUCGGCAAAGCCGAUGUGCCAGCGAGGACCGGUACGGCCGCCACUCGUACAUGAGGAUCACCCAUGUCCGGUCCGGC [Omei Trp SS A C v1]  71.8 nM
8. AGCAAGCAACAUGAGGAUCACCCAUGUGAAGGAGCGCCGAAUAAGGCAGGUAGGUCGCACAUGAAUAAAUCAUGUAAAAGCUUGC [MAT - Exclusion Arginine A - Mod of Eli - D23]  68.1 nM
9. CGGUCGGUCGGCCGGUGAUUAUGGGAUGAAGGAGCGUGGGAAGCUACAGGUAGGUCGCAUCCGAACCAUGAGGAUCACCCAUGGU [SSArg A #23Alt-Ms2 Mod]  39.2 nM
10. UGGCGAGAAGGAAGGAGCGUCAGCUGAGUUACAUGAGGAUCACCCAUGUUGCACAUAGUGUGACAGGUAGGUCGCCUUCUGCCCU [SS-ArgB19]  37.5 nM
11. GGUGGCUCCAUCGAUACCAGCCACCACCGAUAGACCACAUGAGGAUCACCCAUGUUGGGUGGCCCUUGGCAGCGGUGAAGCUGCC [#1 Same State - Theophylline B Attempt #4 (HarryS)]  34.5 nM
12. CGUGGUGGGACGGAUACCAGCCACCGCGGCAACGCAACAUGAGGAUCACCCAUGUUGGGUGGCCCUUGGCAGCUGUGCUGCGACG [#1 Same State - Theophylline B Attempt #28 (HarryS)]  34.2 nM
13. AAUAACAUGAGGAUCACCCAUGUAAGUGGGCGAGGACCGGUACGGCCGCCACUCGGAUGAUGUUGACGAAAAGUCAGCAUCAUCA [#OpenEnded 2 #GuTurnoff #Tail]  34.1 nM
14. UUAAUCAUAUUAGAAAACUAAUAUGCAGAAGGAGCGUGAUAAAACACAGGUAGGUCGCUGAAGGGAACAUGAGGAUCACCCAUGU [AstrosSSArgA#8]  33 nM
15. UCAUAAGUACCGGUCCUCAGAUCCUCAUGACGAGGACCGGUACGGCCGCCACUCGAAACAUGAGGAUCACCCAUGUAAUAAUACU [Brourdmod15]  31.9 nM
16. CACAUGAGGAUCACCCAUGUCUGAACUGAAGGAGCGCUAAACAAGGCAGGUAGGUCGCGGAAUCCUGUGUGCAUAUGCACACGGG [9.W]  26.1 nM
17. ACCAACCACACCCUUCACUGUUUUCGCCGCCGAGGACCGGUACGGCCGCCACUCGUACAAAGACAUGAGGAUCACCCAUGUGCCU [theeternabot_exclusion_MS2_Trp_A_7]  20.4 nM
18. UAACAUGAGGAUCACCCAUGUUUGGAGAAACGAGGACCGGUACGGCCGCCACUCGAGGAGUGGAUGAGAAGUGGGAUAGAGUGAU [Same State Trp A GF6]  17.5 nM
19. GGCCUAGCGAGCGCUCGCUAGGCCGCGGAUACCAGCGAGGUCCAUCGCCCUUGGCAGCCGAACAUGAGGAUCACCCAUGUCGGUA [#1 Same State - Theophylline A Attempt #15 (HarryS)]  16.9 nM
